Blank lines part the entries; values can stand above or below the substance they belong to.
Experiments:
TUBA3C = experiment: Strep-tactin pull-down from HeLa lysate, label-free quantification mass spectrometry; conditions: three biological repeats measured in three technical repeats each; -log10(p-value) est. 4.2; read off a plot
SMG8 = experiment: as above; conditions: three biological repeats measured in three technical repeats each; -log10(p-value) est. 2.2; read off a plot
KIF18B = KIF18B (UniProt Q86Y91); experiment: as above; conditions: three biological repeats measured in three technical repeats each; -log10(p-value) est. 1.5; read off a plot
Chain of UniProt Q86Y91 (Q86Y91 whole entry, looked up): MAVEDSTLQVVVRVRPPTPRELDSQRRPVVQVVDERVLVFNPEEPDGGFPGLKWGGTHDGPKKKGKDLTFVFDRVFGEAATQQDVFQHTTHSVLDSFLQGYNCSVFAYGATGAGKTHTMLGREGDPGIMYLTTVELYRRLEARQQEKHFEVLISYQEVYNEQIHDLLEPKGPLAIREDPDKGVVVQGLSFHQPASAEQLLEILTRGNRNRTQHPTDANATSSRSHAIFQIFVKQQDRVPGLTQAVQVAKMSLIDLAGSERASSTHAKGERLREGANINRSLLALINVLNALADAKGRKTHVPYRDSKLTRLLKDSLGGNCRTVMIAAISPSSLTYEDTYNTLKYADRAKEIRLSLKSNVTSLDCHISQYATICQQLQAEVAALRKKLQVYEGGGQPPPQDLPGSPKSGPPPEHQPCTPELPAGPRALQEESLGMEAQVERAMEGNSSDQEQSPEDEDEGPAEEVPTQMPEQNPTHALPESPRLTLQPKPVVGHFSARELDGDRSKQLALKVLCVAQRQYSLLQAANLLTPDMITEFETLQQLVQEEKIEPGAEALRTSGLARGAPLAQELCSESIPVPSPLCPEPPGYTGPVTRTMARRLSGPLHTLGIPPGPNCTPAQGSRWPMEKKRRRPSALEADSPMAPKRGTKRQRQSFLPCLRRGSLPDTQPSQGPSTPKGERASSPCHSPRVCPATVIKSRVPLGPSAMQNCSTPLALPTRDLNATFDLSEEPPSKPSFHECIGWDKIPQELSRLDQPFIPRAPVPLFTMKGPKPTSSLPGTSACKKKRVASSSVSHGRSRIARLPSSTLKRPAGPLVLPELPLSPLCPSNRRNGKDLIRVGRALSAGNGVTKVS

TUBB2B = experiment: as above; conditions: three biological repeats measured in three technical repeats each; -log10(p-value) est. 3.6; read off a plot
BAX = experiment: as above; conditions: three biological repeats measured in three technical repeats each; -log10(p-value) est. 1.7; read off a plot
COPS7A = experiment: as above; conditions: three biological repeats measured in three technical repeats each; -log10(p-value) est. 2.2; read off a plot
HSP90AB4P = experiment: as above; conditions: three biological repeats measured in three technical repeats each; -log10(p-value) est. 1.0; read off a plot
LYST = experiment: as above; conditions: three biological repeats measured in three technical repeats each; -log10(p-value) est. 0.97; read off a plot
EIF1 = experiment: as above; conditions: three biological repeats measured in three technical repeats each; -log10(p-value) est. 1.2; read off a plot
Nbla03646 = experiment: as above; conditions: three biological repeats measured in three technical repeats each; -log10(p-value) est. 2.1; read off a plot
TUBB4A = experiment: as above; conditions: three biological repeats measured in three technical repeats each; -log10(p-value) est. 3.8; read off a plot
RacGAP1 = RacGAP1 (UniProt Q9H0H5); experiment: as above; conditions: three biological repeats measured in three technical repeats each; -log10(p-value) est. 2.8; read off a plot
Chain of UniProt Q9H0H5 (Q9H0H5 whole entry, looked up): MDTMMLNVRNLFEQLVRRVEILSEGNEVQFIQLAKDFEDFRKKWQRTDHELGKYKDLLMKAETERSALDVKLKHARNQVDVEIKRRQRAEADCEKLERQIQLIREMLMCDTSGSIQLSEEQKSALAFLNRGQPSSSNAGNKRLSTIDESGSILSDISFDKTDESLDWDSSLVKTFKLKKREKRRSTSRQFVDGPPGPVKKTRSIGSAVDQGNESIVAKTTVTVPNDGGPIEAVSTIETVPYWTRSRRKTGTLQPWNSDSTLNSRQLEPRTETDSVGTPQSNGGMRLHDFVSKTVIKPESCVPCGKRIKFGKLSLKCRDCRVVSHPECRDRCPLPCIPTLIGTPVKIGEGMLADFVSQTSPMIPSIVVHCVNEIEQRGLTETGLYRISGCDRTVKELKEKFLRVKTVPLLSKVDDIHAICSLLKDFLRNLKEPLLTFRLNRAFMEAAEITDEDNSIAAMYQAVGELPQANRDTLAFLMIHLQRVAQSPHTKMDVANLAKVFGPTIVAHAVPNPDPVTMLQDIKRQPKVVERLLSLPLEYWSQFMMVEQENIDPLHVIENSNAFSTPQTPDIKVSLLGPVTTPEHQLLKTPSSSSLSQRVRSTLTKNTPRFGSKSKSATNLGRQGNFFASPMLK

FAM91A1 = experiment: as above; conditions: three biological repeats measured in three technical repeats each; -log10(p-value) est. 3.0; read off a plot
GPHN = experiment: as above; conditions: three biological repeats measured in three technical repeats each; -log10(p-value) est. 1.3; read off a plot
NUP35 = experiment: as above; conditions: three biological repeats measured in three technical repeats each; -log10(p-value) est. 3.6; read off a plot
UBL4A = experiment: as above; conditions: three biological repeats measured in three technical repeats each; -log10(p-value) est. 1.4; read off a plot
TUBA1A = experiment: as above; conditions: three biological repeats measured in three technical repeats each; -log10(p-value) est. 3.7; read off a plot
TIMM13 = experiment: as above; conditions: three biological repeats measured in three technical repeats each; -log10(p-value) est. 2.6; read off a plot
ANAPC13 [1] = experiment: Strep-tactin pull-down, label-free quantification mass spectrometry; conditions: complexes SUMOylated in vitro, HeLa lysate added; three biological repeats measured in three technical repeats each
ANAPC1 [2] = experiment: as above; conditions: complexes SUMOylated in vitro, HeLa lysate added; three biological repeats measured in three technical repeats each
ANAPC16 [3] = experiment: as above; conditions: complexes SUMOylated in vitro, HeLa lysate added; three biological repeats measured in three technical repeats each
ANAPC2 [4] = experiment: as above; conditions: complexes SUMOylated in vitro, HeLa lysate added; three biological repeats measured in three technical repeats each
CDC23 [5] = experiment: as above; conditions: complexes SUMOylated in vitro, HeLa lysate added; three biological repeats measured in three technical repeats each
ANAPC15 [6] = experiment: as above; conditions: complexes SUMOylated in vitro, HeLa lysate added; three biological repeats measured in three technical repeats each
CDC27 [7] = experiment: as above; conditions: complexes SUMOylated in vitro, HeLa lysate added; three biological repeats measured in three technical repeats each
CDC26 [8] = experiment: as above; conditions: complexes SUMOylated in vitro, HeLa lysate added; three biological repeats measured in three technical repeats each
ANAPC5 [9] = experiment: as above; conditions: complexes SUMOylated in vitro, HeLa lysate added; three biological repeats measured in three technical repeats each
ANAPC10 [10] = experiment: as above; conditions: complexes SUMOylated in vitro, HeLa lysate added; three biological repeats measured in three technical repeats each
CDC16 [11] = experiment: as above; conditions: complexes SUMOylated in vitro, HeLa lysate added; three biological repeats measured in three technical repeats each
ANAPC13 [12] = experiment: Strep-tactin pull-down, mass spectrometry spectral counting; conditions: complexes SUMOylated in vitro, HeLa lysate added; three biological repeats measured in three technical repeats each
ANAPC1 [13] = experiment: as above; conditions: complexes SUMOylated in vitro, HeLa lysate added; three biological repeats measured in three technical repeats each
ANAPC16 [14] = experiment: as above; conditions: complexes SUMOylated in vitro, HeLa lysate added; three biological repeats measured in three technical repeats each
ANAPC2 [15] = experiment: as above; conditions: complexes SUMOylated in vitro, HeLa lysate added; three biological repeats measured in three technical repeats each
CDC23 [16] = experiment: as above; conditions: complexes SUMOylated in vitro, HeLa lysate added; three biological repeats measured in three technical repeats each
ANAPC15 [17] = experiment: as above; conditions: complexes SUMOylated in vitro, HeLa lysate added; three biological repeats measured in three technical repeats each
CDC27 [18] = experiment: as above; conditions: complexes SUMOylated in vitro, HeLa lysate added; three biological repeats measured in three technical repeats each
CDC26 [19] = experiment: as above; conditions: complexes SUMOylated in vitro, HeLa lysate added; three biological repeats measured in three technical repeats each
ANAPC5 [20] = experiment: as above; conditions: complexes SUMOylated in vitro, HeLa lysate added; three biological repeats measured in three technical repeats each
ANAPC10 [21] = experiment: as above; conditions: complexes SUMOylated in vitro, HeLa lysate added; three biological repeats measured in three technical repeats each
CDC16 [22] = experiment: as above; conditions: complexes SUMOylated in vitro, HeLa lysate added; three biological repeats measured in three technical repeats each

other: Ratio (log2) of protein intensities, wild-type APC4 / mutant APC4 (TUBA3C): -1.9 log2
other: Ratio (log2) of protein intensities, wild-type APC4 / mutant APC4 (SMG8): -1 log2
other: Ratio (log2) of protein intensities, wild-type APC4 / mutant APC4 (KIF18B): 1.8 log2
other: Ratio (log2) of protein intensities, wild-type APC4 / mutant APC4 (TUBB2B): 4.3 log2
other: Ratio (log2) of protein intensities, wild-type APC4 / mutant APC4 (BAX): 1.3 log2
other: Ratio (log2) of protein intensities, wild-type APC4 / mutant APC4 (COPS7A): 1 log2
other: Ratio (log2) of protein intensities, wild-type APC4 / mutant APC4 (HSP90AB4P): 2.5 log2
other: Ratio (log2) of protein intensities, wild-type APC4 / mutant APC4 (LYST): 3.8 log2
other: Ratio (log2) of protein intensities, wild-type APC4 / mutant APC4 (EIF1): -1.6 log2
other: Ratio (log2) of protein intensities, wild-type APC4 / mutant APC4 (Nbla03646): -2.9 log2
other: Ratio (log2) of protein intensities, wild-type APC4 / mutant APC4 (TUBB4A): -1 log2
other: Ratio (log2) of protein intensities, wild-type APC4 / mutant APC4 (RacGAP1): -1.6 log2
other: Ratio (log2) of protein intensities, wild-type APC4 / mutant APC4 (FAM91A1): 2.4 log2
other: Ratio (log2) of protein intensities, wild-type APC4 / mutant APC4 (GPHN): -1.7 log2
other: Ratio (log2) of protein intensities, wild-type APC4 / mutant APC4 (NUP35): -1.4 log2
other: Ratio (log2) of protein intensities, wild-type APC4 / mutant APC4 (UBL4A): -1.4 log2
other: Ratio (log2) of protein intensities, wild-type APC4 / mutant APC4 (TUBA1A): -1.5 log2
other: Ratio (log2) of protein intensities, wild-type APC4 / mutant APC4 (TIMM13): -1.8 log2
Substance: SUMOylated recombinant APC/C containing APC4 wild type (from UniProt Q9UJX5;P55854;Q9UJX3;Q9NYG5;Q9H1A4;Q9UJX6;P30260;Q9UJX4;Q9UJX2;P60006) K772R; K798R

other: LFQ ratio (WT/mutant, log2) (ANAPC13 [1]): 0.25 log2
other: LFQ ratio (WT/mutant, log2) (ANAPC1 [2]): 0.35 log2
other: LFQ ratio (WT/mutant, log2) (ANAPC16 [3]): 0.37 log2
other: LFQ ratio (WT/mutant, log2) (ANAPC2 [4]): 0.4 log2
other: LFQ ratio (WT/mutant, log2) (CDC23 [5]): 0.33 log2
other: LFQ ratio (WT/mutant, log2) (ANAPC15 [6]): 0.4 log2
other: LFQ ratio (WT/mutant, log2) (CDC27 [7]): 0.36 log2
other: LFQ ratio (WT/mutant, log2) (CDC26 [8]): 0.49 log2
other: LFQ ratio (WT/mutant, log2) (ANAPC5 [9]): 0.22 log2
other: LFQ ratio (WT/mutant, log2) (ANAPC10 [10]): 0.44 log2
other: LFQ ratio (WT/mutant, log2) (CDC16 [11]): 0.34 log2
other: MS/MS ratio (WT/mutant, log2) (ANAPC13 [12]): 0.12 log2
other: MS/MS ratio (WT/mutant, log2) (ANAPC1 [13]): 0.26 log2
other: MS/MS ratio (WT/mutant, log2) (ANAPC16 [14]): 0.19 log2
other: MS/MS ratio (WT/mutant, log2) (ANAPC2 [15]): 0.08 log2
other: MS/MS ratio (WT/mutant, log2) (CDC23 [16]): 0.31 log2
other: MS/MS ratio (WT/mutant, log2) (ANAPC15 [17]): 0.2 log2
other: MS/MS ratio (WT/mutant, log2) (CDC27 [18]): 0.24 log2
other: MS/MS ratio (WT/mutant, log2) (CDC26 [19]): 0.17 log2
other: MS/MS ratio (WT/mutant, log2) (ANAPC5 [20]): 0.17 log2
other: MS/MS ratio (WT/mutant, log2) (ANAPC10 [21]): 0.34 log2
other: MS/MS ratio (WT/mutant, log2) (CDC16 [22]): 0.23 log2
Substance: Strep-tagged APC4 wild type of the recombinant APC/C, SUMOylated in vitro (from UniProt Q9UJX5;P55854) K772R; K798R

From publication PMC5856775
